From patent US7005419 (US Dept. of Health and Human Services, dated 2006)
One block for each binder: values may come before it.

Legend:
[1] = target: T1, Cdc2 (human, UniProt P06493 1-297); experiment: co-immunoprecipitation with anti-Cdc2 from transfected HCT116 cells, anti-HA Western blot
T1 construct: Endogenous cellular protein; also called cellular Cdc2; Cdc2 polypeptide
Procedure: (§1) The immunoprecipitates were then analyzed by Western blot with anti-HA antibody.

[2] = target: T2, PCNA (human, UniProt P12004 1-261); experiment: co-immunoprecipitation with anti-PCNA from transfected HCT116 cells, anti-HA Western blot
T2 construct: Endogenous cellular protein
Procedure: as §1

[3] = target: T3, p21^Cip1/Wafl (human, UniProt P38936 1-164, limits assumed); experiment: co-immunoprecipitation with anti-p21 from transfected HCT116 cells, anti-HA Western blot
T3 construct: Both are written as one molecule; also called p21^wafl
Procedure: as §1

[4] = target: Cdk2 (human, UniProt P24941 1-298); experiment: GST pull-down from RKO cell lysate, anti-Cdk2 immunoblot
[5] = target: T4, Cyclin B1 (human, UniProt P14635 1-433); experiment: GST pull-down from RKO cell lysate, anti-cyclin B1 immunoblot
T4 construct: Endogenous cellular protein
T4 sequence (P14635 whole entry): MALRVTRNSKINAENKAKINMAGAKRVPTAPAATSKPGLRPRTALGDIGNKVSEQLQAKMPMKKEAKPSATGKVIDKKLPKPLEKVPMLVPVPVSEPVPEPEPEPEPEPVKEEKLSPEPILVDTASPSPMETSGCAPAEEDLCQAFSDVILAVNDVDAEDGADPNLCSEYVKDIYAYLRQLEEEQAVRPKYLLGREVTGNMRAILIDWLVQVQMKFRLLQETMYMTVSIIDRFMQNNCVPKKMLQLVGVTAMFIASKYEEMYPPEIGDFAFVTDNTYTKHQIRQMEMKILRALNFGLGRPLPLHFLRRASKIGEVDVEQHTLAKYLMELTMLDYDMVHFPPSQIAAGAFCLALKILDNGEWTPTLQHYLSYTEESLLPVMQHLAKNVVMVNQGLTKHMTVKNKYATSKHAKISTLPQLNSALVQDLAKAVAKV

T3 sequence (P38936 whole entry): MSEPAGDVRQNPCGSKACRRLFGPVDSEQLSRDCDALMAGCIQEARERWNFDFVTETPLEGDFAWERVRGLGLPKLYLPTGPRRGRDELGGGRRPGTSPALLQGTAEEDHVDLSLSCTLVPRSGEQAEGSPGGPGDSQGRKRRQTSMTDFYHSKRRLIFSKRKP
T2 sequence (P12004 whole entry): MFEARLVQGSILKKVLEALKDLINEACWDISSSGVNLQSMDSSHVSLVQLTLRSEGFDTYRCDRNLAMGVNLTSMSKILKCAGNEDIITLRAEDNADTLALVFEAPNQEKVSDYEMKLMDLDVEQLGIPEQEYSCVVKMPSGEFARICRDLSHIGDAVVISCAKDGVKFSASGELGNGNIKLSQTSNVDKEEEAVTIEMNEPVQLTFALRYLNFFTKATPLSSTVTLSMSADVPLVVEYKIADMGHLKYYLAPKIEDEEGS
T1 sequence (P06493 whole entry): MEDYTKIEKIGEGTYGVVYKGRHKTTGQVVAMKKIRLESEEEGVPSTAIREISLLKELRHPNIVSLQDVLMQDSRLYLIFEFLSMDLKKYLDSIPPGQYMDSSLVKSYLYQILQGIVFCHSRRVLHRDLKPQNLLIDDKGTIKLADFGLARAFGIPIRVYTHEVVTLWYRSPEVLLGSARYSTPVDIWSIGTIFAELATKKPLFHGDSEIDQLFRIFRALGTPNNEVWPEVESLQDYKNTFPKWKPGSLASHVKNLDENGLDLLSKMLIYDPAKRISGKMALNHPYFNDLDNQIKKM

binding result [1]: no binding
binding result [2]: no binding
binding result [3]: no binding
B1: GADD45 deletion mutant del50-76 (HA-tagged) (other, not shown: small tags and cut ends)
chain: MTLEEFSAGEQKTERMDKVGDALEEVLSKALSQRTITVGVYEAAKLLNVLIQAFCCENDINILRVSNPGRLAELLLLETDAGPAASEGAEQPPDLHCVLVTNPHSSQWKDPALSQLICFCRESRYMDQWVPVINLPER
notes: The junction is not described

binding result [4]: no binding (tested: 100 ng)
binding result [5]: no binding (tested: 100 ng)
B2: glutathione-S-transferase (GST)/GADD45 fusion protein (other)
chain: TLEEFSAGEQKTERMDKVGDALEEVLSKALSQRTITVGVYEAAKLLNVDPDNVVLCLLAADEDDDRDVALQIHFTLIQAFCCENDINILRVSNPGRLAELLLLETDAGPAASEGAEQPPDLHCVLVTNPHSSQWKDPALSQLICFCRESRYMDQWVPVINLPER
notes: GADD45 insert was amplified from pHul45B2 and cloned XhoI/NotI into pGEX4T; also called GST-tagged GADD45; not shown: Glutathione-S-transferase encoded by the pGEX4T vector (Pharmacia)
